Data as given in patent US20230203156A1, “ANTI-MDR1 ANTIBODIES AND USES THEREOF” (KENJOCKETY BIOTECHNOLOGY, INC., priority 2020, published 2023).

How the values were obtained:
[1] = test system: A2780 ADR ovarian carcinoma; assay: A2780 ADR drug-resistant ovarian carcinoma model in nude mice; assay type: in vivo
Description: (§1) Anti-ABCB1 antibodies B1.129, B1.261, B1.223, B1.225, B1.188, B1.28, and B1.226 were tested for effect on growth of tumors in immunodeficient mice. The following cancer cell lines were used for generating tumor models.
A2780 ADR: The adriamycin-resistant cell line A2780ADR has been developed by exposure of the parent A2780 cell line (Sigma catalogue no. 93112519) to adriamycin. A2780ADR is cross-resistant to melphalan and vinblastine. To retain resistance adriamycin has to be added to the media. The cells grow as a monolayer and in suspension in spinner cultures and are tumorigenic in immune deficient mice. Together with the cisplatin-resistant variant A2780cis these lines only differ in their exposure to a single drug and should facilitate the search for molecular changes responsible for the expression of pleiotropic drug resistance in human ovarian cancer.
Nude mice were implanted with A2780 ADR cells to model ovarian carcinoma. Anti-B1 monoclonal antibodies are efficacious in A2780 ADR ovarian carcinoma model in nude mice.

[2] = test system: MES-SA DX5 uterine sarcoma; assay: MES-SA DX5 drug-resistant uterine sarcoma model in nude mice; assay type: in vivo
Description: as §1
MES-SA DX5: The multi drug-resistant cell line MES-SA/Dx5 (Sigma. 95051031) was derived from the human uterine sarcoma cell line MES-SA (Sigma Catalogue number. 95051030) which was originally obtained from a tumour from a person at the time of hysterectomy. […] Cross resistance to bleomycin, cisplatin, carmustine, 5-fluorouracil or methotrexate was not observed.
Nude mice were implanted with MES-SA DX5 cells to model uterine sarcoma. Anti-B1 monoclonal antibodies are efficacious in MES-SA DX5 uterine sarcoma model in nude mice.

[3] = test system: MES-SA DX5 uterine sarcoma; assay: MES-SA DX5 uterine sarcoma model in NSG mice; assay type: in vivo
Excerpt: NSG mice were implanted with MES-SA DX5 cells to model uterine sarcoma. Anti-B1 monoclonal antibodies are efficacious in MES-SA DX5 uterine sarcoma model in NSG mice.

[4] = target: T1, human MDR1 extracellular loops 1 and 4 (ECD1, ECD4) (Homo sapiens, UniProt P08183); assay: Epitope mapping with mutant human MDR1 expressed on 293T cells (flow cytometry); assay type: binding; conditions: extracellular loop 1 and extracellular loop 4
T1 construct: FLAG (C); expressed in transfected cells; host or cells: 293T
Excerpt: To determine binding of anti-MDR1 mAbs listed in Table 2 to the two major extracellular loops 1 and 4 of MDR1, various mutations were constructed to alter or substitute these two loops. To examine binding to cynomolgus extracellular loops, the extracellular loop 1 and/or loop 4 of cynomolgus MDR1 were grafted (with a C-terminal FLAG tag) to substitute for the human loops in the human MDR1 using standard techniques. To examine binding dependence on the normal human loops, MDR1 variants with deletion 79-102 and deletion 82-99 in loop 1 were also generated. Loop 1 is also referred to as ECD1. Loop 4 is also referred to as ECD4. These mutant MDR1 efflux pump variants were expressed on 293T cells using standard methods to generate cells that could be used to distinguish binding of various anti-MDR1 mAbs. The different cells were incubated with different anti-MDR1 mAbs for about 1 hour at 4° C. The cells were washed twice with FACS buffer (PBS containing 0.5% BSA). Alexa647 labeled goat anti-human antibody was added as a secondary antibody, and the samples were incubated on ice for another 1 hour. Samples were washed again and analyzed by flow cytometry.
FIG. 9 summarizes the findings from preliminary epitope mapping using mutant human MDR1. […] For example, anti-MDR1 mAb B1.129 requires ECD1 and ECD4 for binding to human MDR1. All of the anti-MDR1 antibodies contact ECD4. […] ECD1 refers to the first extracellular domain of human ABCB1, ECD4 refers to the fourth extracellular domain of human ABCB1 and “others” refers to the remainder of the extracellular domains 2-3 and 5-6 of human ABCB1. Only binding to ECD1 and ECD4 was tested.

B1: B1.223: anti-MDR1 antibody, Mouse; VH SEQ ID NO:102, VL SEQ ID NO:104 (antibody, listed as Mus musculus, V domains shown)
VH: EVKLVESGGALVKPGGSLKLSCAASGFTFSNYAMSWVRQTPEKRLEWVATISSGGSYTYYPDSVKGRFTISRDNAKTTLYLQMSGLRSEDTALYYCAKFSNYGRFASWGQGTLVTVSS
VL: DIQMIQSPLSLPVSLGDQASISCRSSQSIVHSSGNTYLEWYLQKPGQSPRLLIYKVSNRFFGVPDRISGSGSGTDFTLRISRVEAEDLGVYYCFQGSHVPYTFGGGTKLELK
tumor volume, single agent ([1]; antibody as a single agent): decreased tumor volume | tumor volume, in combination with paclitaxel ([1]; antibody plus paclitaxel): decreased tumor volume | tumor volume / tumor growth, single agent ([2]; MES-SA DX5, nude mice, antibody as a single agent): decreased tumor volume | tumor volume / tumor growth, in combination with paclitaxel ([2]; MES-SA DX5, nude mice, antibody plus paclitaxel): decreased tumor volume | sensitization of MES-SA DX5 uterine sarcoma to paclitaxel ([2]; MES-SA DX5 tumors in vivo): sensitized | sensitization of MES-SA DX5 uterine sarcoma to paclitaxel [3]: sensitizes | epitope on human MDR1 [4]: bind to an epitope comprising extracellular loop 1 and extracellular loop 4
